Sequences and labels used below:
B3: B12 (human IgG1 heavy chain and kappa light chain chimeric) (antibody, V domains shown)
VH: EVKLLESGGSLVQPGGSLKLSCAASGFDFSRYWMSWVRQAPGKGLEWIGEINPDSSTINYTPSLRDEFIISRDNAKNTLFLQMSKVISEDTALYYCARITSGYYFDYWGQGTTLTVSS
VL: DVVMTQTPLSLPVSLGDQASISCRSSQTIVYSNGNTYLYWYLQKPGQSPKLLIYRVSNRFPGVPDRFSGSGSGTDFTLKISGVEAEDMGVYYCFQGTHVPFTFGSGTKLEMK
notes: Chimeric: mouse VH and VL with human IgG1 heavy chain and kappa light chain constant regions

The target of experiment [1] is T1, B7/IgG4.
T1 construct: Chimeric: mouse VH and VL with human IgG4 heavy chain and kappa light chain constant regions; also called B7 (human IgG4 heavy chain and kappa light chain chimeric)
Briefly: ELISA peptide competition: peptide preincubated with B7/IgG4, competitor hLAG3-mFc; final incubation 60 min at room temperature; anti-mouse IgG-HRP. On the procedure: (§1) B5/IgG4 was preincubated with a competition peptide for 30 minutes. Then human LAG-3 extracellular domain (ECD) fused to mouse Fc (hLAG3-mFc) was added (the final peptide concentration was 600-fold that of hLAG3-mFc) and the mixture was incubated for 60 minutes before being added to an ELISA plate coated with anti-human IgG. The incubation was carried out at 4° C. overnight. After washing, the hLAG3-mFc bound to the immobilized B5/IgG4 on the ELISA plate was detected by adding anti-mouse IgG conjugated to horseradish peroxidase (HRP) and incubating for 60 minutes. Then, after washing, the ELISA was developed using One-step Detection Solution and measured as the absorbance at 450 nm.
The assay condition is the same as in FIG. 5A except that the final incubation of the mAb, the competition peptide, and hLAG3-mFc on the ELISA plate was performed at room temperature for 60 minutes instead of incubation at 4° C. overnight.
(§2) Anti-human IgG in carbonate coating buffer was coated on an ELISA plate at 4° C. (50 μL/well at 1 μg/mL) overnight. In each well of a separate plate, a chimeric version of a given anti-LAG-3 mAb (50 μL/well at 1.4 nM) and a competition peptide (50 μL/well at various concentrations as indicated in the figures) were mixed and incubated for 30 minutes at room temperature. Then human LAG-3 extracellular domain (ECD) fused to mouse Fc (hLAG3-mFc) was added to each well (50 μL/well at 2 nM) and the final mixture was incubated at room temperature for 60 minutes before added to the ELISA plate (50 μL/well) for another 60-minute incubation.

Experiment [2] has as its target T2, BG29 (human IgG4 heavy chain and kappa light chain chimeric).
T2 construct: Chimeric: mouse VH and VL with human IgG4 heavy chain and kappa light chain constant regions; also called chimeric BG29
Kind of experiment: ELISA peptide competition: peptide preincubated with chimeric IgG4 BG29, competitor hLAG3-mFc; capture on anti-human IgG, anti-mouse IgG-HRP. As to the method: as §1, with “FIGS. 5A-5D show the effect of competition peptides on LAG-3 binding to anti-LAG-3 mAbs. […] B5/IgG4 was” for “B5/IgG4 was”
as §2, with “incubation. The final incubation after adding the mixture to the ELISA plate was also performed at 4° C. overnight in some assays. The plate was washed and the binding of hLAG3-mFc to the immobilized anti-LAG-3 mAb was detected by adding anti-mouse IgG conjugated to horseradish peroxidase ([…]) (ThermoFisher Scientific, Cat#: A16084; Waltham, Mass.) and incubating for 60 minutes.” for “incubation.”
A general note: In an ELISA, binding on a coated surface is turned into a signal by an enzyme label.

Experiment [3] has as its target T3, human LAG-3(ECD)-mFc (human, UniProt P18627 23-450).
T3 construct: also called hLAG3-mFc; human LAG-3 extracellular domain (ECD) fused to mouse Fc; not shown: mouse Fc
T3 sequence: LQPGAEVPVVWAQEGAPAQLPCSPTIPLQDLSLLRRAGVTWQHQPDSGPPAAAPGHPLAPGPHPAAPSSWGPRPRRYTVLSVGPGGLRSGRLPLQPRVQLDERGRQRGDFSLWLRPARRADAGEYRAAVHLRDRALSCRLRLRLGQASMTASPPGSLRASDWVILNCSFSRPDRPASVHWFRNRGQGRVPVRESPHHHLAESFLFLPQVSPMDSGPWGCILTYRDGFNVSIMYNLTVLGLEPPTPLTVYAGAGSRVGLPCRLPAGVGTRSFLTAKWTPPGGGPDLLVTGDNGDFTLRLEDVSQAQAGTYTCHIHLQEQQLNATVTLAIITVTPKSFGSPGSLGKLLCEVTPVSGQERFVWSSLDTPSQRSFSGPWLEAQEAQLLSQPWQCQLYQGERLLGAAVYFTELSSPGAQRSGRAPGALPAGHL
Briefly: ELISA: chimeric IgG1 B12 with hLAG3-mFc in solution, captured on anti-human IgG, anti-mouse IgG-HRP. As to the method:
as §1, with “FIGS. 5A-5D show the effect of competition peptides on LAG-3 binding to anti-LAG-3 mAbs. […] B5/IgG4 was” for “B5/IgG4 was”
Anti-human IgG in carbonate coating buffer was coated on an ELISA plate at 4° C. (50 μL/well at 1 μg/mL) overnight. […] The plate was washed and the binding of hLAG3-mFc to the immobilized anti-LAG-3 mAb was detected by adding anti-mouse IgG conjugated to horseradish peroxidase ([…]) (ThermoFisher Scientific, Cat#: A16084; Waltham, Mass.) and incubating for 60 minutes.

Experiment [4] deals with T4, B5/IgG4.
T4 construct: Chimeric: mouse VH and VL with human IgG4 heavy chain and kappa light chain constant regions; also called B5 (human IgG4 heavy chain and kappa light chain chimeric)
Kind of experiment: ELISA peptide competition: peptide preincubated with B5/IgG4, competitor hLAG3-mFc; peptide at 600-fold hLAG3-mFc; capture on anti-human IgG, anti-mouse IgG-HRP.

Experiment [5] deals with T4, B5/IgG4. Briefly: ELISA peptide competition: peptide preincubated with B5/IgG4, competitor hLAG3-mFc; capture on anti-human IgG, anti-mouse IgG-HRP. On the procedure:
as §1, with “FIGS. 5A-5D show the effect of competition peptides on LAG-3 binding to anti-LAG-3 mAbs. […] B5/IgG4 was” for “B5/IgG4 was”
as §2, with “incubation. The final incubation after adding the mixture to the ELISA plate was also performed at 4° C. overnight in some assays. The plate was washed and the binding of hLAG3-mFc to the immobilized anti-LAG-3 mAb was detected by adding anti-mouse IgG conjugated to horseradish peroxidase ([…]) (ThermoFisher Scientific, Cat#: A16084; Waltham, Mass.) and incubating for 60 minutes.” for “incubation.”

In experiment [6] the target is T2, BG29 (human IgG4 heavy chain and kappa …). Briefly: ELISA peptide competition: peptide preincubated with chimeric IgG4 BG29, competitor hLAG3-mFc; peptide at 200-fold hLAG3-mFc; capture on anti-human IgG, anti-mouse IgG-HRP. As to the method: as §1, with “FIGS. 5A-5D show the effect of competition peptides on LAG-3 binding to anti-LAG-3 mAbs. […] B5/IgG4 was” for “B5/IgG4 was”
as §2, with “incubation. The final incubation after adding the mixture to the ELISA plate was also performed at 4° C. overnight in some assays. The plate was washed and the binding of hLAG3-mFc to the immobilized anti-LAG-3 mAb was detected by adding anti-mouse IgG conjugated to horseradish peroxidase ([…]) (ThermoFisher Scientific, Cat#: A16084; Waltham, Mass.) and incubating for 60 minutes.” for “incubation.”

Experiment [7] concerns the target B3. Briefly: ELISA peptide competition: peptide preincubated with chimeric IgG1 B12, competitor hLAG3-mFc; peptide at 600-fold hLAG3-mFc; capture on anti-human IgG, anti-mouse IgG-HRP.
Experiment [8] has as its target B3. Briefly: ELISA peptide competition: peptide preincubated with chimeric IgG1 B12, competitor hLAG3-mFc; capture on anti-human IgG, anti-mouse IgG-HRP. On the procedure:
as §1, with “FIGS. 5A-5D show the effect of competition peptides on LAG-3 binding to anti-LAG-3 mAbs. […] B5/IgG4 was” for “B5/IgG4 was”
as §2, with “incubation. The final incubation after adding the mixture to the ELISA plate was also performed at 4° C. overnight in some assays. The plate was washed and the binding of hLAG3-mFc to the immobilized anti-LAG-3 mAb was detected by adding anti-mouse IgG conjugated to horseradish peroxidase ([…]) (ThermoFisher Scientific, Cat#: A16084; Waltham, Mass.) and incubating for 60 minutes.” for “incubation.”

T1 sequence (VH, as listed by the source): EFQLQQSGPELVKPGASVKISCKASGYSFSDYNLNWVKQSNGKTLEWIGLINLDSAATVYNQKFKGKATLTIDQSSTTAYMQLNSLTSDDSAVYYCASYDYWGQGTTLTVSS
T2 sequence (VH, as listed by the source, chain 1 of 2): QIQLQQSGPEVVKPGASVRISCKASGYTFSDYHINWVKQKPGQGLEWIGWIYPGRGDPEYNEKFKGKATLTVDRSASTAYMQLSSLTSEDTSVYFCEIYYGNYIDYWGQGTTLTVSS
T2 sequence (VL, as listed by the source, chain 2 of 2): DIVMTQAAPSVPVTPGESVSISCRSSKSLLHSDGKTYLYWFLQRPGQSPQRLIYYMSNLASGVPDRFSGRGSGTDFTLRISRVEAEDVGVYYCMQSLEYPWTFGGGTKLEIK

B1: 15-26 (peptide)
peptide: PHPAAPSSWGPR
notes: also called peptide 15-26
Regarding B1, the binding result in experiment [1] is listed as “no binding (tested: 600-fold hLAG3-mFc)”.

B2: 7-14 (peptide)
peptide: PGHPLAPG
notes: also called peptide 7-14
As to B2, in experiment [2], the binding result is given as “no binding (tested: 200-fold hLAG3-mFc)”.
Turning to B3, in experiment [3], the binding result was “binds”.

B4: 20-30 (peptide)
peptide: PSSWGPRPRRY
notes: also called peptide 20-30
Consider B4, for which the binding result in experiment [1] is given as “no binding (tested: 600-fold hLAG3-mFc)”.

B5: 21-30 (peptide)
peptide: SSWGPRPRRY
notes: also called peptide 21-30
In the case of B5, the binding result in experiment [1] is “no binding (tested: 600-fold hLAG3-mFc)”.

B6: 6-13 (peptide)
peptide: APGHPLAP
notes: also called peptide 6-13
In the case of B6, the binding result in experiment [2] is “no binding (tested: 200-fold hLAG3-mFc)”.

B7: 1-12 (peptide)
peptide: GPPAAAPGHPLA
notes: also called peptide 1-12
Take B7: the figures for the binding result in experiment [2] and in experiment [4] were “no binding (tested: 200-fold hLAG3-mFc)” and “binds”, respectively.

B8: 3-14 (peptide)
peptide: PAAAPGHPLAPG
notes: also called peptide 3-14
Regarding B8, the results for the binding result in experiment [5], in experiment [6] and in experiment [7] were “no binding (tested: 600-fold hLAG3-mFc)”, “binds” and “binds”, respectively.

B9: Q15 (peptide)
peptide: QPDSGPPAAAPGHPL
notes: also called peptide Q15
With B9, the binding result in experiment [8] and in experiment [5] was “no binding (tested: 600-fold hLAG3-mFc)” each time.

B10: 5-14 (peptide)
peptide: AAPGHPLAPG
notes: also called peptide 5-14
For B10, the binding result in experiment [8] was “no binding (tested: 600-fold hLAG3-mFc)”; in experiment [6] it was “binds”.

B11: 6-14 (peptide)
peptide: APGHPLAPG
notes: also called peptide 6-14
For B11, the binding result in experiment [2] was “no binding (tested: 200-fold hLAG3-mFc)”; in experiment [8] it was “no binding (tested: 600-fold hLAG3-mFc)”.

B12: Q14 (peptide)
peptide: QPDSGPPAAAPGHP
notes: also called peptide Q14
For B12, the binding result in experiment [8] and in experiment [5] was “no binding (tested: 600-fold hLAG3-mFc)” in each case.

B13: 1-11 (peptide)
peptide: GPPAAAPGHPL
notes: also called peptide 1-11
Regarding B13, in experiment [5], the binding result is given as “no binding (tested: 600-fold hLAG3-mFc)”.

B14: 4-14 (peptide)
peptide: AAAPGHPLAPG
notes: also called peptide 4-14
Consider B14, for which the binding result in experiment [8] is reported as “no binding (tested: 600-fold hLAG3-mFc)”; in experiment [6], “binds”.

The values are drawn from patent US20210032331A1 (PHANES THERAPEUTICS, published 2021).
